Test results taken from patent US20190330374A1.

Assays:
[1] = target: OX40 on activated T cells (PBMCs activated with Human T cell Activator Dynabeads) (human) (UniProt P43489); assay: flow cytometry on activated PBMCs, CD8+ T cells with low OX40
OX40-Fc (R&D) (human) [2] = target: OX40-Fc (R&D) (human) (UniProt P43489); assay: ELISA, plate coated with 1.6 ng/mL OX40-Fc, anti-human kappa-HRP detection
[3] = target: OX40 on activated T cells (PBMCs activated with Human T cell Activator Dynabeads) (human) (UniProt P43489); assay: flow cytometry on activated PBMCs, CD4+ T cells with high OX40
OX40-Fc (R&D) (human) [4] = target: OX40-Fc (R&D) (human) (UniProt P43489); assay: ELISA, plate coated with 0.4 ng/mL OX40-Fc, anti-human kappa-HRP detection

Chain of OX40 on activated T cells (PBMCs activated with Human T cell Activator Dynabeads) (human) (P43489 29-277): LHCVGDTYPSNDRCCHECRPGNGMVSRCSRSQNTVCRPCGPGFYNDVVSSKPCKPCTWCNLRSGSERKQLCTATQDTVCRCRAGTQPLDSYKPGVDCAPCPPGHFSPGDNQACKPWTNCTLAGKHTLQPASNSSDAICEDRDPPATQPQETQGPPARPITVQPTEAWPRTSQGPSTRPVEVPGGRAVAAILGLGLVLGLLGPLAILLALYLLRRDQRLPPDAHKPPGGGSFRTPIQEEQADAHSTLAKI
Chain of OX40-Fc (R&D) (human) (P43489 29-216 limits assumed): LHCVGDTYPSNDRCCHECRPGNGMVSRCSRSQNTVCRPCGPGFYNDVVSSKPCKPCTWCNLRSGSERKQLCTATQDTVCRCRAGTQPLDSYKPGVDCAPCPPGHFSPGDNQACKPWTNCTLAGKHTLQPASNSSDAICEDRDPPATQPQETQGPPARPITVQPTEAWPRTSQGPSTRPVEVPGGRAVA

B1: Anti-OX40 #1-IgM (antibody, V domains shown)
VH: QVQLQESGPGLVKPSQTLSLTCAVYGGSFSSGYWNWIRKHPGKGLEYIGYISYNGITYHNPSLKSRITINRDTSKNQYSLQLNSVTPEDTAVYYCARYKYDYDGGHAMDYWGQGTLVTVSS
VL: DIQMTQSPSSLSASVGDRVTITCRASQDISNYLNWYQQKPGKAPKLLIYYTSKLHSGVPSRFSGSGSGTDYTLTISSLQPEDFATYYCQQGSALPWTFGQGTKVEIK
- fold better binding than Anti-OX40 #1-IgG (ratio of Kd, IgG to IgM) [1]: 25 fold
- fold better binding than Anti-OX40 #1-IgG (ratio of Bmax) (OX40-Fc (R&D) (human) [2]): 1.2 fold
- fold better binding than Anti-OX40 #1-IgG (ratio of Kd, IgG to IgM) [3]: 6 fold
- fold better binding than Anti-OX40 #1-IgG (ratio of Bmax) (OX40-Fc (R&D) (human) [4]): 28 fold
